Test results published in patent US20230212228A1 (ETH Z RICH, published 2023).
Groups on a side chain read outwards from the residue. No end group written: not given here. Mal‑Cy5 = Cy5-maleimide thiol adduct on the Cys side chain

B1: Cy5-FnBPA5 (peptide)
peptide: C([maleimide-Cy5])GGGQVTTESNLVEFDEESTKGIVTGAVSDHTTVEDTK
modifications: not fully specified
notes: A payload-GGG- format by amide bond is also mentioned; also called Cy5-labelled FnBPA5; FnBPA5 peptide
B2: Cy5-FnBPA5.1 (peptide)
peptide: C(Mal‑Cy5)GGGQVTTGSNLVEFTEESLGIVTGAVSDHTTVEDT
notes: also called Cy5-labelled FnBPA5.1

How the values were obtained:
[1] = target: T1, Fib1, N-terminal 30 kDa fragment of fibronectin (Homo sapiens (Human), UniProt P02751 32-290); assay: fluorescence polarization/anisotropy, Cy5-labelled peptide (48 nM) titrated with Fib1 in PBS pH 7.4
T1 construct: also called Fib1 construct; 30 kDa N-terminal fragment of fibronectin containing the N-terminal FnI1-5 modules

[2] = target: T1, Fib1, N-terminal 30 kDa fragment of …; assay: fluorescence polarization, Cy5-labelled peptide titrated with Fib1

T1 sequence (P02751 32-290 limits assumed): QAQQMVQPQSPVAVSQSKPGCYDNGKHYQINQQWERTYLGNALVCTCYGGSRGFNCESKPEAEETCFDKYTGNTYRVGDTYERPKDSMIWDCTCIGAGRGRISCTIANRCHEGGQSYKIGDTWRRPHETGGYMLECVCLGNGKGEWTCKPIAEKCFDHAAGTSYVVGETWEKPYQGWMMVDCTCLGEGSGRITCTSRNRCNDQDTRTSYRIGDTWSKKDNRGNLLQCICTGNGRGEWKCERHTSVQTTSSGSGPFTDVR

Row | Binder | Kd [1] | binding result [2]
1 | B1 | 102 nM | 
2 | B2 |  | binds
